# Patent US20210079088A1 (published 2021)
# Substitutions are numbered along the chain they refer to.
# T1: soluble human IL-4Rα (sIL-4Rα; PEPRO TECH, Catalog Number: 200-04R) (human, UniProt P24394 26-232)
# T1 construct: Bought protein; also called shIL-4Rα; soluble hIL-4 Rα
# T1 sequence: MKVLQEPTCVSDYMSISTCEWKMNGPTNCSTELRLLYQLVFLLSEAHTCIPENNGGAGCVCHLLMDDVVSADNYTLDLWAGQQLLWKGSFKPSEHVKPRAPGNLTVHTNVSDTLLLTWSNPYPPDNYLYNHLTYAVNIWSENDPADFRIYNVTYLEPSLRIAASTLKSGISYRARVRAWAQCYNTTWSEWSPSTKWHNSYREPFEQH
# B1: L1000H1007 (antibody, V domains shown)
# VH: EVQLVQSGGGLVHPGGSLRLSCAGSGFTFSRNAMFWVRQAPGKGLEWVSGIGTGGATSYADSVKGRFTISRDNAKNSLYLQMNSLRAEDMAVYYCARGRYYFDYWGQGTLVTVSS
# VL: not shown
# B2: L1012H1031 (antibody, V domains shown)
# VH: B1 VH with Q6E, H13Q, G24A, M90T
# VL: not shown
# B3: L1000H1008 (antibody, V domains shown)
# VH: B1 VH with S58N, M90T
# VL: not shown
# B4: L1000H1021 (antibody, V domains shown)
# VH: B1 VH with S58N, M90T, D103P, Y104W
# VL: not shown
# B5: L1000H1023 (antibody, V domains shown)
# VH: B1 VH with Q6E, M90T, D103P, Y104W
# VL: not shown
# B6: L1019H1000 (antibody, V domains shown)
# VH: B1 VH with S58N
# VL: EIVLTQSPGTLSLSPGERATLSCRASQSVSNSYLAWYQQKPGQAPRLLIFGASSRATGIPDRFSGSGSGTDFTLTISRLEPEDFAVYYCQQYDHSAGWTFGQGTKVEIK
# B7: L1000H1032 (antibody, V domains shown)
# VH: B1 VH with Q6E, H13Q, G24A, S58N, D103P, Y104W
# VL: not shown
# B8: L1000H1001 (antibody, V domains shown)
# VH: B1 VH with Q6E, H13Q, G24A, M90T, D103P, Y104W
# VL: not shown
# B9: L1000H1030 (antibody, V domains shown)
# VH: B1 VH with Q6E, H13Q, G24A, S58N, M90T, D103P, Y104W
# VL: not shown
# B10: L1000H1035 (antibody, V domains shown)
# VH: B1 VH with F35H, S58N
# VL: not shown
# B11: L1000H1027 (antibody, V domains shown)
# VH: B1 VH with Q6E, G24A, M90T, D103P, Y104W
# VL: not shown
# B12: L1000H1028 (antibody, V domains shown)
# VH: B1 VH with H13Q, G24A, M90T, D103P, Y104W
# VL: not shown
# B13: L1012H1020 (antibody, V domains shown)
# VH: B1 VH with D103P, Y104W
# VL: not shown
# B14: L1000H1012 (antibody, V domains shown)
# VH: B1 VH with M90T
# VL: not shown
# B15: L1007H1000 (antibody, V domains shown)
# VH: B1 VH with S58N
# VL: not shown
# B16: L1010H1000 (antibody, V domains shown)
# VH: B1 VH with S58N
# VL: not shown
# B17: L1000H1026 (antibody, V domains shown)
# VH: B1 VH with Q6E, H13Q, M90T, D103P, Y104W
# VL: not shown
# B18: L1000H1036 (antibody, V domains shown)
# VH: B1 VH with K43E, S58N
# VL: not shown
# B19: L1013H1000 (antibody, V domains shown)
# VH: B1 VH with S58N
# VL: B6 VL with A96P, G97P
# B20: L1012H1000 (antibody, V domains shown)
# VH: B1 VH with S58N
# VL: not shown
# B21: L1000H1020 (antibody, V domains shown)
# VH: B1 VH with D103P, Y104W
# VL: not shown
# B22: L1011H1000 (antibody, V domains shown)
# VH: B1 VH with S58N
# VL: B6 VL with T57P, D93G, H94S, A96P, G97P
# B23: L1017H1000 (antibody, V domains shown)
# VH: B1 VH with S58N
# VL: not shown
# B24: L1000H1010 (antibody, V domains shown)
# VH: B1 VH with H13Q, S58N
# VL: not shown
# B25: L1000H1037 (antibody, V domains shown)
# VH: B1 VH with S58N, N73E
# VL: not shown
# B26: L1020H1000 (antibody, V domains shown)
# VH: B1 VH with S58N
# VL: B6 VL with N31S, F50Y
# B27: L1012H1029 (antibody, V domains shown)
# VH: B1 VH with Q6E, H13Q, G24A, D103P, Y104W
# VL: not shown
# B28: L1012H1007 (antibody, V domains shown)
# VH: B1 VH
# VL: not shown
# B29: L1000H1014 (antibody, V domains shown)
# VH: B1 VH with H13Q, G24A, S58N
# VL: not shown
# B30: L1016H1000 (antibody, V domains shown)
# VH: B1 VH with S58N
# VL: B6 VL with N31S, A96P, G97P
# B31: L1000H1013 (antibody, V domains shown)
# VH: B1 VH with Q6E, G24A, S58N
# VL: not shown
# B32: L1008H1000 (antibody, V domains shown)
# VH: B1 VH with S58N
# VL: not shown
# B33: L1001H1000 (antibody, V domains shown)
# VH: B1 VH with S58N
# VL: B6 VL with F50Y, T57P
# B34: L1000H1009 (antibody, V domains shown)
# VH: B1 VH with Q6E, S58N
# VL: not shown
# B35: L1000H1016 (antibody, V domains shown)
# VH: B1 VH with S58N, D103P, Y104W
# VL: not shown
# B36: L1015H1000 (antibody, V domains shown)
# VH: B1 VH with S58N
# VL: B6 VL with N31S, T57P, A96P, G97P
# B37: L1000H1022 (antibody, V domains shown)
# VH: B1 VH with M90T, D103P, Y104W
# VL: not shown
# B38: L1000H1015 (antibody, V domains shown)
# VH: B1 VH with Q6E, H13Q, S58N
# VL: not shown
# B39: L1000H1024 (antibody, V domains shown)
# VH: B1 VH with H13Q, M90T, D103P, Y104W
# VL: not shown
# B40: L1000H1025 (antibody, V domains shown)
# VH: B1 VH with G24A, M90T, D103P, Y104W
# VL: not shown
# B41: L1000H1031 (antibody, V domains shown)
# VH: B1 VH with Q6E, H13Q, G24A, M90T
# VL: not shown
# B42: L1000H1029 (antibody, V domains shown)
# VH: B1 VH with Q6E, H13Q, G24A, D103P, Y104W
# VL: not shown
# B43: L1009H1000 (antibody, V domains shown)
# VH: B1 VH with S58N
# VL: not shown
# Target: T1, soluble human IL-4Rα (sIL-4Rα; PEPRO …)
# Assay: ELISA, coated sIL-4Rα, culture supernatant
# Description: Sample to be tested: For each antibody of the present invention, 10 μl and 2 μl of the culture supernatant of Expi293 cells expressing the antibody after transient transfection (the medium was Expi293 Expression Medium, Invitrogen, Catalog Number: A1435102; suspension culture was performed for 4 days at 100 rpm in a 8% CO2 incubator) were respectively added to 990 μl and 998 μl of PBS to prepare antibody samples to be tested of 1:100 and 1:500 dilutions.
# 100 μl of 100 μg/ml sIL-4Rα solution was added to 9.90 ml of PBS, mixed up and down, and then an antigen coating buffer of 1.0 μg/ml was obtained. The prepared antigen coating buffer was added to a 96-well ELISA plate (Corning) with a volume of 100 μl per well. The 96-well ELISA plate was incubated overnight in a refrigerator at 4° C. On the next day, the solution therein was discarded, and PBS containing 2% BSA was added to the 96-well ELISA plate row by row with a volume of 300 μl per well. The 96-well ELISA plate was incubated for 2 hours in a refrigerator at 4° C. Then the PBS containing 2% BSA was discarded and the plate was washed 3 times with PBST. Diluted antibodies to be tested were sequentially added to the corresponding wells, while the normal cell culture supernatants, as negative control samples, were added too. Three duplicate wells were made for each sample with a volume of 100 μl per well. The ELISA plate was wrapped with preservative film (or covered) and incubated for 1 h at 10° C. in a constant temperature incubator. Subsequently, the 96-well ELISA plate was taken out, and the solution therein was discarded. After washing with PBST for 3 times, TMB solution (Solarbio, Catalog Number: PR1200) was added to the 96-well ELISA plate row by row with a volume of 100 μl per well. The 96-well ELISA plate was placed at room temperature for 5 minutes, and 2 M H2SO4 solution was added in immediately to terminate the reaction. The 96-well ELISA plate was placed in flexstation 3 (Molecular Devices), the values of OD450 were read, and the data were collected, calculated and analyzed. Results were expressed relative to the affinity of control antibody 1.
row,Binder,OD450/OD450 Control antibody 1
1,B1,0.37 ratio to control antibody 1
2,B2,0.16 ratio to control antibody 1
3,B3,0.21 ratio to control antibody 1
4,B4,0.35 ratio to control antibody 1
5,B5,0.63 ratio to control antibody 1
6,B6,1.79 ratio to control antibody 1
7,B7,0.53 ratio to control antibody 1
8,B8,0.7 ratio to control antibody 1
9,B9,0.2 ratio to control antibody 1
10,B10,0.22 ratio to control antibody 1
11,B11,0.44 ratio to control antibody 1
12,B12,0.33 ratio to control antibody 1
13,B13,0.11 ratio to control antibody 1
14,B14,0.18 ratio to control antibody 1
15,B15,0.8 ratio to control antibody 1
16,B16,1 ratio to control antibody 1
17,B17,0.11 ratio to control antibody 1
18,B18,0.1 ratio to control antibody 1
19,B19,0.24 ratio to control antibody 1
20,B20,1.22 ratio to control antibody 1
21,B21,0.23 ratio to control antibody 1
22,B22,0.9 ratio to control antibody 1

row,Binder,OD450/OD450 Control antibody 1
1,B23,0.49 ratio to control antibody 1
2,B24,0.11 ratio to control antibody 1
3,B25,-0.01 ratio to control antibody 1
4,B26,2.27 ratio to control antibody 1
5,B27,0.11 ratio to control antibody 1
6,B28,0.4 ratio to control antibody 1
7,B29,1.06 ratio to control antibody 1
8,B30,0.27 ratio to control antibody 1
9,B31,0.38 ratio to control antibody 1
10,B32,0.9 ratio to control antibody 1
11,B33,1.56 ratio to control antibody 1
12,B34,0.56 ratio to control antibody 1
13,B35,0.61 ratio to control antibody 1
14,B36,0.67 ratio to control antibody 1
15,B37,0.18 ratio to control antibody 1
16,B38,0.65 ratio to control antibody 1
17,B39,0.26 ratio to control antibody 1
18,B40,0.21 ratio to control antibody 1
19,B41,1.14 ratio to control antibody 1
20,B42,0.8 ratio to control antibody 1
21,B43,0.64 ratio to control antibody 1
